The results in this text go back to patent publication US6992063 (TRUSTEES OF PRINCETON UNIVERSITY, dated 2006).

The chains are these.
B2: XIAP-BIR3 (residues 238-358) (other, mammalian, UniProt P98170 238-358, looked up)
chain: RSESDAVSSDRNFPNSTNLPRNPSMADYEARIFTFGTWIYSVNKEQLARAGFYALGEGDKVKCFHCGGGLTDWKPSEDPWEQHAKWYPGCKYLLEQKGQEYINNIHLTHSLEECLVRTTEK
notes: Overexpressed as a GST fusion (pGEX-2T) and purified as in Chai et al. 2000; also called BIR3 domain of XIAP; third BIR domain of XIAP

The target in data set [1] is B2. The experiment in a line: isothermal titration calorimetry.
Data set [2] deals with T1, DIAP1-BIR1 (residues 1-145) (Drosophila, UniProt Q24306 1-145).
T1 construct: range 1-145; Expressed as a GST fusion; the GST moiety was removed by thrombin cleavage; also called BIR1 domain of DIAP1
T1 sequence (looked up): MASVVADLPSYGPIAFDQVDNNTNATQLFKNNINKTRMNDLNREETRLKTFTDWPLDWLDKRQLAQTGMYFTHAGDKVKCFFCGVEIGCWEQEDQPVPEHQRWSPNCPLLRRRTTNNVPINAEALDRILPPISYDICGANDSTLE
The experiment in a line: gel filtration of BIR domain with excess peptide, then reverse phase HPLC and mass spectroscopy. As for the experimental part:
(§1) In vitro interaction assay. […] The mixture was fractionated by gel filtration chromatography (Superdex-200, Pharmacia). The protein-containing fractions were analyzed by reverse phase HPLC and mass spectroscopy for detection of the bound peptide.

Data set [3] concerns the target T2, DIAP1-BIR2 (residues 201-325) (Drosophila, UniProt Q24306 201-325).
T2 construct: range 201-325; Expressed as a GST fusion; the GST moiety was removed by thrombin cleavage; also called BIR2 domain of DIAP1; DIAP-BIR2
T2 sequence (looked up): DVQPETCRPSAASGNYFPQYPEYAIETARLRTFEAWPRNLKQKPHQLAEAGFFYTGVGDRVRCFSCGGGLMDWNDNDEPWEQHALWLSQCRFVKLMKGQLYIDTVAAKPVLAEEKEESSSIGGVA
In words: isothermal titration calorimetry, 23 °C. As for the experimental part: Isothermal microcalorimetry titration. All proteins and peptides was prepared in 50 mM sodium phosphate buffer, pH 7.5. The Micro Calorimetry System (Microcal, Amherst, Mass.) was used to perform the ITC measurements for the interaction between DIAP1-BIR2 and various synthetic peptides. The titration data, collected at 23° C., were analyzed using the ORIGIN data analysis software (Microcal Software, Northampton, Mass.).

Data set [4] has as its target T2, DIAP1-BIR2 (residues 201-325). The experiment in a line: gel filtration and mass spectroscopic analyses (data not shown). As for the experimental part:
as §1
Rationale and structure determination.

The target of data set [5] is T3, XIAP-BIR3 (residues 238-358), P98170.
T3 chain: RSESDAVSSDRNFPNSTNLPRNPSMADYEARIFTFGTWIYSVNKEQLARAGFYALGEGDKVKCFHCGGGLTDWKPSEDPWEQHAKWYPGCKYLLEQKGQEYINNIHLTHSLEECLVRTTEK

Data set [6] addresses T4, Smac (Phe33Asp, residues 1-162), monomeric mutant (human, UniProt Q9NR28 56-217, A selenomethionyl form (Met replaced by Se-Met) was used only for phasing. The native crystals hold the plain protein.).
T4 construct: Residues 1-162 and position 33 count on mature Smac, not on the precursor entry; Expressed in E. coli from pET-3d for crystallisation; a selenomethionyl form was used for phasing; also called mutant Smac protein; monomeric Smac protein
T4 sequence: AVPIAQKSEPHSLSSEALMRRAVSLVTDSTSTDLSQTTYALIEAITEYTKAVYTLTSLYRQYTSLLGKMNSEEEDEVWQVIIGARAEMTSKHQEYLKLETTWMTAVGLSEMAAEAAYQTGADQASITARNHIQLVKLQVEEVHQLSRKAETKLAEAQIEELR
In words: reconstituted binary complex, in solution and co-crystallised.
Description: Crystallization and data collection. […] At 23° C., the reservoir contained 100 mM citrate buffer, pH 5.5, 5% PEG 4000, and 10% isopropanol. Crystals appeared after 1–4 days and reached a maximum size over a period of 1–3 weeks. Both crystals are in the triclinic space group P1 and contain two complexes in each unit cell. […] Diffraction data were primarily collected using an R-AXIS-IV imaging plate detector mounted on a Rigaku 200HB generator. Derivatives were obtained by soaking crystals in reservoir buffer containing 20% glycerol (v/v) and heavy atoms. The concentration and soaking time for mercury thimerosal were 1 mM and 20 hours, respectively. To collect data at −170° C., crystals were equilibrated in a cryoprotectant buffer containing reservoir buffer plus 20% glycerol (v/v) and were flash frozen in a cold nitrogen stream. The high-resolution native data were collected at the NSLS beamline X4A.

AVPFYLPEGG [10-residue Hid peptide (N-terminal peptide of Hid)]: in data set [1], the “fold difference in binding affinity between the Hid and Grim peptides” value is about 100 fold. In data set [2], the binding result is reported as “no binding”. The “fold higher binding affinity than the Grim peptide” value in data set [3] came out at 6 fold.

AIAYFIPDQA [10-residue Grim peptide (N-terminal peptide of Grim)]: the binding result in data set [4] is “binds”; in data set [1], “binds”; in data set [2], “no binding”.

B1: caspase-9 (protein)
chain: MDEADRRLLRRCRLRLVEELQVDQLWDALLSRELFRPHMIEDIQRAGSGSRRDQARQLIIDLETRGSQALPLFISCLEDTGQDMLASFLRTNRQAAKLSKPTLENLTPVVLRPEIRKPEVLRPETPRPVDIGSGGFGDVGALESLRGNADLAYILSMEPCGHCLIINNVNFCRESGLRTRTGSNIDCEKLRRRFSSLHFMVEVKGDLTAKKMVLALLELAQQDHGALDCCVVVILSHGCQASHLQFPGAVYGTDGCPVSVEKIVNIFNGTSCPSLGGKPKLFFIQACGGEQKDHGFEVASTSPEDESPGSNPEPDATPFQEGLRTFDQLDAISSLPTPSDIFVSYSTFPGFVSWRDPKSGSWYVETLDDIFEQWAHSEDLQSLLLRVANAVSVKGIYKQMPGCFNFLRKKLFFKTS
Consider B1, for which the “caspase-9 activity (cleavage of Ac-LEHD-AFC), direct assay” value in data set [5] is listed as “the inhibition of caspase-9 by the BIR3 domain of XIAP”.

Turning to B2, the binding result in data set [6] is “binds”.
